Experimental data published in patent US8916686B2, “TDF-related compounds and analogs thereof” (Thrasos Innovation, Inc., priority 2004, dated 2014).
Read-outs that look alike come from different tables or passages of the source.

Experiments:
[1] = biological target: ALK-3 (Homo sapiens, UniProt P36894); assay: Radioligand receptor binding assay (competition with 125I-labeled TDF-1)
Source text: General protocol: These assays are based on competition between ^125I-labeled TDF-1 (BMP-7 or OP-1) and candidate TDFRP compounds or unlabeled TDF-1 for binding to respective receptors (ALK-3, ALK-6 or BMPR-2). In brief, the procedure involves immobilization of receptor on 96 well Removawell plates, blocking the wells with 3% BSA in PBS and subsequently washing the wells. Increasing concentrations of unlabeled TDF-1 or TDFRP compounds or control (unlabeled TDF-1) prepared in binding buffer are then added. Incubate plate for 1 hour at room temperature, and then add a fixed amount of ^125I-labeled TDF-1 (250,000 to 350,000 cpm) to the wells and further incubate in cold (4° C.) for 20 hours. Aspirate the contents of the wells and wash the wells four times with a wash buffer, and count the receptor bound ^125I-labeled TDF-1 in an auto gamma counter.
Using this procedure, TDFRP compound binding to select ALK receptors are assessed. Accordingly, TDFRP compounds that preferentially bind select ALK receptors can be identified. For example, TDFRP compounds that preferentially bind to ALK-3 receptor compared with binding to other ALK receptors, e.g., ALK-6 (FIG. 1 and FIG. 11).

[2] = system: CD1 mouse model of streptozotocin (STZ)-induced diabetic nephropathy; assay: Streptozotocin (STZ)-induced diabetic nephropathy; type: in vivo; conditions: ip 5 mg/kg/24 hr; after one month treatment
Protocol: Reversal of interstitial fibrosis by Thrasos compound SEQ ID NO 45 in a CD1 mouse model of streptozotocin (STZ)-induced diabetic nephropathy. FIG. 7A. schematic of the experimental protocol, FIG. 7B: Kidney section of vehicle-treated animal, FIG. 7C: Kidney section of animal received ip administration of Thrasos compound (5 mg/kg/24 hr). Sac: After one month treatment.

[3] = system: HK-2 (Human Kidney-2) cells; assay: HK-2 cell culture, TNF-alpha induced cytokine production (IL-6 ELISA); type: cell-based
Protocol: The immortalized PTEC-derived HK-2 (Human Kidney-2) cells (ATCC number CRL-2190) were grown in serum-free keratinocyte medium (GIBCO number 17005-042) supplemented with epidermal growth factor (EGF: 5 ng/mL) and bovine pituitary extract (40 ug/mL) for 48 hours as described previously (Ryan et al (1994) Kidney International 45:48-57). Cells were transferred to 24-well plates at a density of 3×10^5 cells per well. After 24 hours, cells were incubated with fresh medium containing TNF-alpha (5 ng/mL) for 20 hours. Controls received medium alone. Then cells were washed twice with fresh culture medium and further incubated with culture medium alone (medium control, and TNF control wells) or TDF-1 at three different concentrations (40, 200 or 1000 ng/mL) or TDFRP compounds at three different concentrations (4, 20 or 100 uM) for sixty hours. During incubation, cells were kept in a 5% CO2 humid atmosphere at 37° C. At the end of the incubation, the media were removed and stored frozen until assayed. The concentrations of IL-6, IL-8 and sICAM-1 in culture supernatants were measured by specific ELISA (FIG. 10). […]
An 8 point standard curve is prepared using 2-fold serial dilutions in reagent diluent. […] The optical density of each well is determined immediately using a microplate reader (Dynex Revelation 4.22) set to 450 nm and a wavelength correction at 550 nm […]

Sequence of ALK-3 (P36894 24-532, species assumed): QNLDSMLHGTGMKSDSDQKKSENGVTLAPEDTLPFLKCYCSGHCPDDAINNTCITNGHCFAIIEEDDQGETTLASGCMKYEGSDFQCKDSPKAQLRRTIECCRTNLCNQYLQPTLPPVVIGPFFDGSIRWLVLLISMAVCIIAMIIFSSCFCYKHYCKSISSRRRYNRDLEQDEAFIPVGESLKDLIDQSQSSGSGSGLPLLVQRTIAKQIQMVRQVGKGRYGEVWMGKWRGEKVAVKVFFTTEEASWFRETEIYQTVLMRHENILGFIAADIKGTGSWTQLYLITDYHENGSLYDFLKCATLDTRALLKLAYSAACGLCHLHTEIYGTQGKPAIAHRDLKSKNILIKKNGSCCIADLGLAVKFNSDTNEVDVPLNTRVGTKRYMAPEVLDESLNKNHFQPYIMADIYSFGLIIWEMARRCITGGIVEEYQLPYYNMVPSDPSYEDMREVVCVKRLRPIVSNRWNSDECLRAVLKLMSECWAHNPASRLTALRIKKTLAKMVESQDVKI

## CYFDDSSNVLCKKYRS [SEQ ID NO 45]
[1]
  differential binding to Type I receptors (ALK-3 compared to ALK-6): selectively binds to ALK-3
[1]; listed as SEQ ID NO:45
  differential binding to Type I receptors (ALK-3 compared to ALK-6): binds preferentially to BMP type I receptors (ALK3)
[2]
  renal interstitial fibrosis: effectively reversed renal interstitial fibrosis
[3]
  TNF-alpha induced inflammatory response (increase in IL-6) in proximal tubule cells: can alleviate this inflammatory response
